From PMC5489143, “One ligand, two regulators and three binding sites: How KDPG controls primary carbon metabolism in Pseudomonas” (PLoS Genetics, 2017)

Assays:
[1] = test system: RccR-His (Pseudomonas fluorescens SBW25); test: DNase I footprinting; conditions: full protection concentration, SPR: 10 mM Hepes pH 7.4, 300 mM NaCl, 3 mM EDTA, 0.05% Tween20, 25 C, DNase I footprint: 10 mM Tris-HCl pH 8.0, 50 mM NaCl, 10 mM KCl, 5 mM MgCl2, 1 mM DTT …
RccR (RccR-His) = biological target: T1, RccR (RccR-His) (Pseudomonas paralactis, UniProt A0A0R3AJU3); test: SPR (ReDCaT, Biacore T200), change of RccR binding to immobilised DNA; conditions: effector; lowers binding to aceE and rccR sites, raises binding to aceA 28 bp site; 0.5 uM RccR-His, 0-1000 uM ligand, 10 mM Hepes pH 7.4, 300 mM NaCl, 3 mM EDTA, 25 C
T1 construct: gene hexR; full gene in pET42b, E. coli BL21(DE3) pLysS; C-terminal His tag kept; nickel and heparin columns
T1 sequence (A0A0R3AJU3 1-288): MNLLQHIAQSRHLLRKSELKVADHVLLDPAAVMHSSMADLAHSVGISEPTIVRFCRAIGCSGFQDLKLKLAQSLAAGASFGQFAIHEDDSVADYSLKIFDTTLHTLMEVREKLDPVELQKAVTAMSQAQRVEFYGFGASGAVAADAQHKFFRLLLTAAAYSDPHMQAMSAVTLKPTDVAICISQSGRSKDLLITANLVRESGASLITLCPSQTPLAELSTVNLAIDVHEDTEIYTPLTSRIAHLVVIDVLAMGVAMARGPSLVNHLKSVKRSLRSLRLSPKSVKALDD

aceE promoter DNase I probe
binding signal ([1]; two sites): 10 nM

aceA promoter DNase I probe
binding signal ([1]; lower affinity than aceE and rccR): 80 nM

rccR promoter DNase I probe
binding signal [1]: 20 nM

O=C(O)C(=O)C[C@H](O)[C@H](O)COP(=O)(O)O [KDPG, 2-keto-3-deoxy-6-phosphogluconate]
%Rmax (RccR (RccR-His)): KDPG addition decreased the affinity of RccR-His for both aceE and rccR consensus sequences
